# According to patent US20130109846A1 (published 2013):
# Positions count from the first letter of the chain named. In names and notes the source's numbering stands.
# B1: 1h-79-21 (other)
# VL: DIQMTQSPSSLSASVGDRVTITCRASQPIGHSFAWYQQKPGKAPKLLIYWASTLQSGVPSRFSGSGSGTDFTLTISSLQPEDFATYYCQQMLRTPFTFGQGTKVEIKR
# B2: 1h-79-30 (other)
# VL: B1 VL with A34G, T53M, T97S
# B3: 1h-79-28 (other)
# VL: B1 VL with F33L, A34G, T53M, T97M
# B4: 1h-79-806 (other)
# VL: B1 VL with F33L, A34G, T53M, S56G, T97M
# B5: 1h-79-809 (other)
# VL: B1 VL with P28A, F33L, A34G, I48V, T97M
# B6: 1h-79-808 (other)
# VL: B1 VL with S32A, F33L, A34G, K45R, T97M
# B7: 1h-79-31 (other)
# VL: B1 VL with A34G, T53M, T97M
# B8: 1h-79-26 (other)
# VL: B1 VL with F33L, A34G, T53M, T97S
# B9: 1h-79-8 (other)
# VL: B1 VL with F33L, A34G, T97M
# B10: 1h-79-802 (other)
# VL: B1 VL with Q27T, F33L, A34G, T97M
# B11: 1h-79-29 (other)
# VL: B1 VL with F33L, A34G, T53M, T97A
# B12: 1h-79-32 (other)
# VL: B1 VL with A34G, T53M, T97A
# B13: 1h-79-24 (other)
# VL: B1 VL with F33L, A34G, T97A
# B14: 1h-79-22 (other)
# VL: B1 VL with F33L, T53M, T97S
# B15: 1h-79-807 (other)
# VL: B1 VL with S32T, F33L, A34G, T53D, Q55I, S56R, T97M
# B16: 1h-80-1 (other)
# VL: DIQMTQSPSSLSASVGDRVTITCRASQRIGSNLAWYQQKPGRAPKLLIYWASLLQSGVPSRFSGSGSGTDFTLIISSLQPEDFATYYCQQTRSAPFAFGQGTKVEIKR
# B17: 1h-99-237 (other)
# VH: EVQLLESGGGLVQPGGSLRLSCAASGFTFDSANMSWARQAPGKGLEWVSWIEAPGVQTFYADSVRGRFTISRDNSKNTLYLQMNSLRAEDTAVYYCARSPFGPLYGFDYRGQGTLVTVSS
# B18: 1h-99-238 (other)
# VH: B17 VH with P54S, R65K, R98K
# B19: 1h-99-2 (other)
# VH: B17 VH with A37V, A53D, P54T, V56T, R65K, R98K
# B20: 1h-99-265 (other)
# VH: B17 VH with S31K, A32S, P54S, R65K, R98K
# B21: 1h-99-237 40K linear PEG (other)
# VH: B17 VH
# modifications: 40K linear PEG; site of attachment not stated
# B22: 1h-99-2 40K linear PEG (other)
# VH: B17 VH with A37V, A53D, P54T, V56T, R65K, R98K
# modifications: 40K linear PEG; site of attachment not stated
# B23: 1h-99-2 40K branched PEG (other)
# VH: B17 VH with A37V, A53D, P54T, V56T, R65K, R98K
# modifications: 40K branched PEG; site of attachment not stated
# B24: 1h-99-238 40K linear PEG (other)
# VH: B17 VH with P54S, R65K, R98K
# modifications: 40K linear PEG; site of attachment not stated
# B25: DOM21-22 (other)
# VH: EVQLLESGGGLVQPGGSLRLSCAASGFTFELYQMGWVRQAPGKGLEWVSTIMPSGNLTYYADSVKGRFTISRDNSKNTLYLQMNSLRAEDTAVYYCAKMWSLNLGFHAAFDYWGQGTLVTVSS
# notes: VH dAb
# B26: DOM21-20 (other)
# VH: EVQLLESGGGLVQPGGSLRLSCAASGFTFPAYSMIWVRQAPGKGLEWVSTISPLGYSTYYADSVKGRFTISRDNSKNTLYLQMNSLRAEDTAVYYCAEQTAYLNRATEHFDYWGQGTLVTVSS
# notes: VH dAb
# B27: 1h-239-8 (other)
# VL: DIQMTQSPSSLSASVGDRVTITCRASQSIYPFLEWYQQKPGKAPKLLIYFTSRLQSGVPSRFSGSGSGTDFTLTISSLQPEDFATYYCLQNVTNPATFSQGTKVEIKR
# B28: 1h-239-891(S60C) 30K linear PEG (other)
# VL: B27 VL with Q27R, S28P, Y30W, Q55R, S56H, S60C, T93A
# modifications: 30K linear PEG; engineered cysteine S60C
# B29: 1h-239-891(K42C) 40K branched PEG (other)
# VL: B27 VL with Q27R, S28P, Y30W, K42C, Q55R, S56H, T93A
# modifications: 40K branched PEG; engineered cysteine K42C
# B30: 1h-239-891(S60C) 40K branched PEG (other)
# VL: B27 VL with Q27R, S28P, Y30W, Q55R, S56H, S60C, T93A
# modifications: 40K branched PEG; engineered cysteine S60C
# B31: 1h-239-8 40K linear PEG (other)
# VL: B27 VL
# modifications: 40K linear PEG; site of attachment not stated
# B32: 1h-239-891(S9C) 40K branched PEG (other)
# VL: B27 VL with S9C, Q27R, S28P, Y30W, Q55R, S56H, T93A
# modifications: 40K branched PEG; engineered cysteine S9C
# B33: 1h-239-891(Q79C) 40K branched PEG (other)
# VL: B27 VL with Q27R, S28P, Y30W, Q55R, S56H, Q79C, T93A
# modifications: 40K branched PEG; engineered cysteine Q79C
# B34: 1h-239-891(G41C) 40K branched PEG (other)
# VL: B27 VL with Q27R, S28P, Y30W, G41C, Q55R, S56H, T93A
# modifications: 40K branched PEG; engineered cysteine G41C
# B35: 1h-239-896 (other)
# VL: B27 VL with Q27R, S28P, Y30W, Q55A, S56R, T93Q, N94M
# B36: 1h-239-850 (other)
# VL: B27 VL with Q27R, S28P, Y30W, T93S, N94M
# B37: 1h-239-891(Q3C) 40K branched PEG (other)
# VL: B27 VL with Q3C, Q27R, S28P, Y30W, Q55R, S56H, T93A
# modifications: 40K branched PEG; engineered cysteine Q3C
# B38: 1h-239-890 (other)
# VL: B27 VL with Q27R, S28P, Y30W, Q55A, S56R, T93A
# B39: 1h-239-850 40K linear PEG (other)
# VL: B27 VL with Q27R, S28P, Y30W, T93S, N94M
# modifications: 40K linear PEG; site of attachment not stated
# B40: DOM21-4 (other)
# VH: EVQLLESGGGLVQPGGSLRLSCAASGFTFSRYHMAWVRQAPGKGLEWVSVIDSLGLQTYYADSVKGRFTISRDNSKNTLYLQMNSLRAEDTAVYYCAEYGGAFDYWGQGTLVTVSS
# notes: VH dAb
# B41: DOM21-6 (other)
# VH: EVQLLESGGGLVQPGGSLRLSCAASGFTFENYGMAWVRQAPGKGLEWVSNIGRAGSVTYYADSVKGRFTISRDNSKNTLYLQMNSLRAEDTAVYYCAKVQSWRTFDYWGQGTLVTVSS
# notes: VH dAb
# B42: DOM21-18 (other)
# VL: DIQMTQSPSSLSASVGDRVTITCRASQYIGTSLNWYQQKPGKAPKLLTYQASLLQSGVPSRFSGSGSGTDFTLTISSLQPEDFATYYCQQLALRPMTFGQGTKVEIKR
# notes: VK dAb
# What was measured:
# human CD28 [1] = molecular target: T1, human CD28 (human, UniProt P10747 19-220); experiment: cell-based or functional assay
# human CD28 [2] = molecular target: T1, human CD28; experiment: cell-based or functional assay; remark: listed apart in the source
# human CD28 [3] = molecular target: T1, human CD28; experiment: cell-based or functional assay; remark: listed apart in the source
# [4] = molecular target: T2, recombinant human CD28/Fc Chimera (human, UniProt P10747 19-152); experiment: BIAcore, CM5 chip coated with 12500 RU of CD28-Fc
# T2 construct: bought from R&D Systems; Fc part of the bought chimera not given
Binder,Luciferase assay (EC50) (human CD28 [1]),MLR assay (EC50) (human CD28 [1]),DC-MLR Assay (EC50 nM) (human CD28 [2]),also measured
B1,3000 nM,–,–,–
B2,224 nM,126 nM,–,–
B3,40 nM,109 nM,–,–
B4,40 nM,26 nM,–,–
B5,592 nM,–,–,–
B6,560 nM,–,–,–
B7,141 nM,103 nM,–,–
B8,62 nM,38 nM,–,–
B9,240 nM,–,–,–
B10,421 nM,48 nM,–,–
B11,43 nM,150 nM,–,–
B12,68 nM,–,–,–
B13,331 nM,295 nM,–,–
B14,750 nM,–,–,–
B15,31 nM,53 nM,–,–
B16,366 nM,438 nM,–,–
B17,3 nM,3 nM,3 nM,Luciferase assay (EC50 nM) (human CD28 [2]): 3 nM
B18,3 nM,5 nM,5 nM,Luciferase assay (EC50 nM) (human CD28 [2]): 3 nM
B19,17 nM,13 nM,13 nM,Luciferase assay (EC50 nM) (human CD28 [2]): 17 nM
B20,4 nM,3 nM,–,"IFNγ (EC50 nM), DC-driven MLR (human CD28 [3]): 4.6 nM; IL-2 (EC50 nM), DC-driven MLR (human CD28 [3]): 2.4 nM; TNFα (EC50 nM), DC-driven MLR (human CD28 [3]): 3.6 nM"
B21,–,–,2 nM,–

Binder,Luciferase assay (EC50) (human CD28 [1]),MLR assay (EC50) (human CD28 [1]),DC-MLR Assay (EC50 nM) (human CD28 [2]),also measured
B22,–,–,390 nM,Luciferase assay (EC50 nM) (human CD28 [2]): 100 nM
B23,–,–,383 nM,Luciferase assay (EC50 nM) (human CD28 [2]): 117 nM
B24,–,–,29 nM,Luciferase assay (EC50 nM) (human CD28 [2]): 4.5 nM
B25,–,–,–,binding result [4]: binds
B26,–,–,–,binding result [4]: binds
B27,10 nM,–,13 nM,Luciferase assay (EC50 nM) (human CD28 [2]): 10 nM
B28,–,–,0.8 nM,–
B29,–,–,13 nM,–
B30,–,–,1.2 nM,–
B31,–,–,285 nM,Luciferase assay (EC50 nM) (human CD28 [2]): 510 nM
B32,–,–,1.3 nM,–
B33,–,–,4.9 nM,–
B34,–,–,2 nM,–
B35,–,–,–,"IFNγ (EC50 nM), DC-driven MLR (human CD28 [3]): 0.3 nM; IL-2 (EC50 nM), DC-driven MLR (human CD28 [3]): 0.3 nM; TNFα (EC50 nM), DC-driven MLR (human CD28 [3]): 0.3 nM"
B36,9 nM,2 nM,2 nM,Luciferase assay (EC50 nM) (human CD28 [2]): 9 nM
B37,–,–,1.5 nM,–
B38,–,–,–,"IFNγ (EC50 nM), DC-driven MLR (human CD28 [3]): 0.3 nM; IL-2 (EC50 nM), DC-driven MLR (human CD28 [3]): 0.1 nM; TNFα (EC50 nM), DC-driven MLR (human CD28 [3]): 0.2 nM"
B39,–,–,4 nM,Luciferase assay (EC50 nM) (human CD28 [2]): 2 nM
B40,–,–,–,binding result [4]: binds
B41,–,–,–,binding result [4]: binds
B42,–,–,–,binding result [4]: binds
